“Also recorded” adds a separate entry of the source.

What all share (format): cell-based, mouse
The test system of one assay is EGFP^(+) cells (NCC^kit). Briefly: neonatal cKit^CreERT2/IRG myocardial explant culture with or without MSC feeders, live-cell quantification of EGFP^(+) cells. Here is the method:
To study the mechanisms controlling migration and proliferation in postnatal cardiac NCC^kit clones, 2-day old cKit^CreERT2/IRG neonates administered a single subcutaneous injection of 50 μl of tamoxifen. The next day, 3-day old postnatal hearts (PN3) were harvested, washed in ice-cold HBSS and cleaned from unwanted tissues under a stereomicroscope. They were then transferred in a tissue-cultured hood and, after additional washing steps with DMEM under sterile conditions, were minced into ˜1 mm^3 fragments and digested in a solution of DMEM/F12, 20% FBS, 1% penicillin/streptomycin and 200 units/ml Collagenase-Type II solution at 37° C. Following that, tissue explants were collected and washed twice with DMEM. Single tissue fragments were then picked under a stereomicroscope using a pipette, and cultured individually in single wells of gelatin-coated 24-well plates, with or without 1×10^5 MSCs feeders. Samples were fed every other day. The basic myocardial explant feeding medium consisted of DMEM/F12, 15% FBS, 1% penicillin/streptomycin, 1% β-mercaptoethanol, 1000 units/ml recombinant mouse LIF, 1 ng/ml recombinant mouse bFGF, and 0.1 mM nonessential amino acids. The impact of SCF was tested by supplementing the medium with 100 ng/ml recombinant murine SCF. For cKit neutralization, 100 ng/ml of rat anti-murine cKit antibody were supplemented to the medium. For assessing the role of Sdf1/Cxcr4, AMD3100 was supplemented to the medium, at a final concentration of 1 μM. Samples were then monitored daily, and clonal growth of EGFP^(+) cells was quantified every other day for 5-8 consecutive days, under a fluorescent microscope.
Myocardial explants from these animals were collected the following day, and were cultured in the presence or absence of MSC feeders. Swine MSCs were isolated and expanded from a single, healthy Yorkshire donor as previously described. Briefly, bone marrow was obtained from the iliac crest, and aspirates were passed through a density gradient to eliminate undesired cell types and were plated with 25 ml MEM Alpha media containing 20% fetal Bovine Serum in 162 cm^2 culture flasks. At 5-7 days after plating, non-adherent cells were washed away during medium changes and the remaining, plastic adherent, purified MSC population was expanded in culture. All used cells were harvested when they reached 80-90% confluence at passage 3-4, and inactivated for 3 h at 37° C. with 10 μg/ml of mitomycin C. Inactivated porcine MSC feeders were collected by trypsinization and cryopreserved in liquid nitrogen until use. For all experiments, MSCs feeders were seeded at a concentration of 2×10^5 MSCs/ml a day before use. The responses of EGFP^(+) cells under different culture conditions were monitored daily and quantified via live-cell fluorescence imaging every other day.
The effect of MSCs on NCC^kit migration was explored because recent studies reveal a chemotactic role of Sdf1/Cxcr4 axis on NCCs. Myocardial explant cultures were generated, as described above, and screened the emergence of EGFP^(+) cells in response to AMD3100, an inhibitor of the Sdf1/Cxcr4 axis. […] Thus, Sdf1/Cxcr4 axis regulates migration and differentiation of NCC^kit.

Assay [1] relates to iPSC^kit-derived embryoid bodies. The assay can be described thus: in-vitro lineage tracing during cardiogenic differentiation of iPSC^kit-derived embryoid bodies pulsed with 4-OH tamoxifen. The source says: First, to specifically address the relationship between CNC^kit and the cKit^+/Nkx2.5^+ lineage purified from mouse ES and iPSCs-derived cardiac mesoderm, iPSCs from cKit^CreERT2/IRG adult tail-tip fibroblasts (iPSC^kit) were established. iPSC^kit stably express DsRed with no leakage of EGFP (<30 passages). As with the cKit^CreERT2/IRG mice DsRed is irreversibly replaced by EGFP in iPSC^kit-derivatives upon Cre-mediated recombination, which occurs in response to treatment with 4-OH tamoxifen. […] Thus, iPSC^kit are suitable for in-vitro lineage tracing of cKit-expressing cells. Cardiomyocyte differentiation was induced by treatment of iPSC^kit-derived embryoid bodies (EB) with ascorbic acid as previously described (FIG. 17). Successful differentiation was reflected in the development of spontaneously contracting cardiomyocytes. To genetically trace whether any of the generated cardiomyocytes were progeny of cKit^+ progenitors, EBs were pulsed with 4-OH tamoxifen at selected time-points during differentiation and monitored the emergence of spontaneously beating EGFP^+ derivatives (FIG. 17). Indeed, EGFP^+ derivatives were detected in ˜45% of the spontaneously beating EBs, confirming previous findings that mouse pluripotent stem cells can be consistently directed to generate cardiomyocytes via a cKit^+ cardiomyocyte progenitor lineage (data not shown). […]

The test system of a further assay is iPSC^kit. Briefly: quantitative gene-expression analysis during cardiogenic differentiation of iPSC^kit. The conditions noted are these: noggin-treated iPSC^kit.

`c1cc(CN2CCCNCCNCCCNCC2)ccc1CN1CCCNCCNCCCNCC1` [AMD3100]: in the assay on EGFP^(+) cells (NCC^kit) (AMD3100 1 μM, compared to non-AMD3100 treated groups), the “differentiation of EGFP^(+) cells into spontaneously beating/contracting cells” value was “massive differentiation into spontaneously contracting cardiomyocytes; also recorded: dramatic increase in the numbers of spontaneously beating EGFP^(+) cells”. Further, in the assay on EGFP^(+) cells (NCC^kit) (explants on MSC feeders), the “migration of EGFP^(+) cells from the cultured explants” value is listed as “blocked the migration of EGFP^(+) cells; also recorded: blocking cell migration”. Moreover, the “number / abundance of EGFP^(+) cells” value with EGFP^(+) cells (NCC^kit) (explants on MSC feeders, compared to MSCs+SCF group, AMD3100 1 μM, anti-cKit antibody 100 ng/ml) is reported as “significant reduction in the abundance of EGFP^(+) cells; also recorded: significantly decreased the number of EGFP^(+) cells”.

`O=C1O[C@H]([C@@H](O)CO)C(O)=C1O` [ascorbic acid]: the “spontaneously beating EBs with EGFP^+ derivatives” value in assay [1] (cardiomyocyte differentiation induced by ascorbic acid) was ~45%.

B1: SCF: recombinant murine SCF supplemented to the medium at 100 ng/ml (protein)
chain: KEICGNPVTDNVKDITKLVANLPNDYMITLNYVAGMDVLPSHCWLRDMVIQLSLSLTTLLDKFSNISEGLSNYSIIDKLGKIVDDLVLCMEENAPKNIKESPKRPETRSFTPEEFFSIFNRSIDAFKDFMVASDTSDCVLSSTLGPEKDSRVSVTKPFMLPPVA
As to B1, the “increase in proliferative capacity of EGFP^(+) cells” value in the assay on EGFP^(+) cells (NCC^kit) (100 ng/ml recombinant murine SCF, MSCs present) is recorded as 3.5 fold. Also, in the assay on EGFP^(+) cells (NCC^kit) (SCF in the absence of MSCs), the “proliferation of EGFP^(+) cells” value is on record as “no significant differences were detected”. For the same molecule, the “migration of EGFP^(+) cells from the cultured explants” value with EGFP^(+) cells (NCC^kit) (explants on MSC feeders) is given as “neither SCF nor cKit affected EGFP^(+) cell migration”.

B2: noggin: BMP antagonist used for noggin-mediated antagonism of BMP signaling (protein, UniProt Q13253 28-232, looked up)
Noggin: QHYLHIRPAPSDNLPLVDLIEHPDPIFDPKEKDLNETLLRSLLGGHYDPGFMATSPPEDRPGGGGGAAGGAEDLAELDQLLRQRPSGAMPSEIKGLEFSEGLAQGKKQRLSKKLRRKLQMWLWSQTFCPVLYAWNDLGSRFWPRYVKVGSCFSKRSCSVPEGMVCKPSKSVHLTVLRWRCQRRGGQRCGWIPIQYPIISECKCSC
As for B2, the “generation of EGFP^+ cardiomyocytes” value in assay [1] (BMP antagonism of iPSC^kit, EBs pulsed with 4-OH tamoxifen) is given as “resulted in the generation of EGFP^+ cardiomyocytes”. For the same molecule, the “expression of the epicardial progenitor cell markers WT1 and Tbx18” value in the assay on iPSC^kit is “transiently repressed”. Further, the “expression of cKit, Wnt1, Snai2, Pax3 and MITF-H” value in the assay with iPSC^kit (selected time-points) is “dramatic upregulation”.

The values are drawn from US10786536B2, “Cardiac neural crest cells and methods of use thereof” (VESTION, INC., priority 2013, dated 2020).
